In the supplement of paper PMC11136658:

Tested on: peptide library, one residue held at a place counted from the Y acceptor
Test: relative phosphorylation of the sub-library (ratio to the mean residue at this position); higher = residue favoured
Summary of the method: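 Every value reflects phosphorylation relative to the mean randomized residue. The sum of the 18 randomized residues, or 16 in the Ser/Thr-free library, served to normalize intensities at each position, which were then multiplied by that number. Intensities came from phosphorimaging with ImageQuant of biotinylated Tyr-centred peptides captured on streptavidin membranes after 90 min with purified recombinant kinases and 50 μM ATP plus γ-32P-ATP.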

Sequence of FLT1, construct: aa748-end, human (P17948 748-1338, looked up): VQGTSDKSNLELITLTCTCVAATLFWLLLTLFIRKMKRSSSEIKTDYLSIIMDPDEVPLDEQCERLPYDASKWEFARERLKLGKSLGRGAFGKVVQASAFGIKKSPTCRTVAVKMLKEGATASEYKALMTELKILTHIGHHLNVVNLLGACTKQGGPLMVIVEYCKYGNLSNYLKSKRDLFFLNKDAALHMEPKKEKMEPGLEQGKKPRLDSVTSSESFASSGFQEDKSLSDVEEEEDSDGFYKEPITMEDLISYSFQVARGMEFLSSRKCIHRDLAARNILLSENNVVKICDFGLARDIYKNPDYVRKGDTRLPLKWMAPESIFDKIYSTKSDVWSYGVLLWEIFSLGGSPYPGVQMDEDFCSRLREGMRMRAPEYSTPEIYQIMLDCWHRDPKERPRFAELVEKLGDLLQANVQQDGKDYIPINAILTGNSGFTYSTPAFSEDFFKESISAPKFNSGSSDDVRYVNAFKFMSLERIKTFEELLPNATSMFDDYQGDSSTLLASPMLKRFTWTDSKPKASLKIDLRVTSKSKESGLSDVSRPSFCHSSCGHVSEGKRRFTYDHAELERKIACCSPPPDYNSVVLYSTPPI
Sequence of FLT3, construct: aa564-end, human (P36888 564-993, looked up): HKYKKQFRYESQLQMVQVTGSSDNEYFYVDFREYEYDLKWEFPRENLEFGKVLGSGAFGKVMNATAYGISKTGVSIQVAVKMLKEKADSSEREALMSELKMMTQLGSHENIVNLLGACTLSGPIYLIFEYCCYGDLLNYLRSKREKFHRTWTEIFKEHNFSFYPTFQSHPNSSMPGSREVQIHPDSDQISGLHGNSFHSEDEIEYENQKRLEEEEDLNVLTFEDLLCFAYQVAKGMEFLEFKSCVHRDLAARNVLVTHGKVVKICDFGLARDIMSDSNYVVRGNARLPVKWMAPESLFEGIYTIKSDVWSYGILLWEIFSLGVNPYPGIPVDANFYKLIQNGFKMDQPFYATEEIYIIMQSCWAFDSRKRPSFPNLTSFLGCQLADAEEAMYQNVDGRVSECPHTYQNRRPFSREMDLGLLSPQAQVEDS

FLT1, construct: aa748-end, human (from UniProt P17948)
relative phosphorylation
Conditions	at +1	at +2	at +3	at +4	at +5	at -1	at -2	at -3	at -4	at -5
A fixed	0.624	0.689	0.604	0.797	0.722	0.496	0.885	0.899	0.91	0.956
D fixed	0.478	1.49	0.636	1.1	1.01	3.57	1.75	1.66	1.4	1.24
E fixed	0.487	0.899	0.582	0.817	0.933	2.46	1.57	1.66	1.38	1.1
F fixed	2.3	1.38	1.99	0.981	1.13	0.92	0.797	1.01	0.956	1.14
G fixed	0.478	0.439	0.633	0.845	0.911	0.446	1.11	1.03	1.1	1.1
H fixed	1.38	1.17	0.7	1.3	1.17	1.18	1.07	1.22	1.12	1.24
I fixed	1.34	0.698	1.46	0.709	0.639	0.948	0.597	0.599	0.653	0.745
K fixed	0.683	1.21	0.625	1.39	1.27	0.432	1.01	0.853	1.01	1.14
L fixed	0.873	0.86	1.63	0.787	0.844	0.639	0.633	0.729	0.693	0.727
M fixed	1	0.867	1.6	0.8	0.786	0.559	0.696	0.73	0.797	0.801
N fixed	0.533	1.19	0.755	1.06	1.11	1.16	1.16	1.17	0.929	0.953
P fixed	0.415	0.574	1.02	1.4	1.28	0.525	1.08	0.781	0.897	1.03
Q fixed	0.957	0.926	0.684	0.88	1.09	0.81	1.14	1.05	1.02	0.936
R fixed	0.875	1.53	0.729	1.46	1.25	0.458	1.13	1.01	1.1	1.11
S fixed	0.67	0.923	0.698	0.968	0.83	0.462	1.14	1.08	0.867	0.982
T fixed	0.987	1.11	0.666	0.83	0.839	0.705	1.04	0.906	0.887	0.891
V fixed	1.94	0.766	1.09	0.681	0.723	0.747	0.655	0.594	0.701	0.763
W fixed	1.63	1.32	1.27	0.985	1.12	0.649	0.724	1.01	1.34	1.02
pThr fixed	0.947	2.03	0.788	1.08	0.963	2.55	1.42	2.05	1.86	1.78
pTyr fixed	2.58	2.77	0.88	0.609	0.679	2.54	2.3	3.12	2.64	1.66

FLT3, construct: aa564-end, human (from UniProt P36888)
relative phosphorylation
Conditions	at +1	at +2	at +3	at +4	at +5	at -1	at -2	at -3	at -4	at -5
A fixed	0.822	0.62	0.639	0.968	0.955	0.749	0.806	0.766	1.05	0.952
D fixed	0.318	0.629	0.321	0.688	0.696	1.49	1.19	1.44	1.33	1.14
E fixed	0.643	0.89	0.227	0.826	0.771	1.2	1.15	1.69	1.56	1.15
F fixed	2.12	1.22	1.72	0.984	1.18	1.12	0.669	0.834	1	0.998
G fixed	0.431	0.368	0.603	0.904	1.19	0.574	0.972	0.786	1.21	1.16
H fixed	1.7	0.78	0.96	1	1.15	1.56	1.1	0.946	0.938	0.976
I fixed	1.6	1.19	1.52	1.05	0.961	1.25	0.954	0.688	0.913	0.871
K fixed	0.705	1.02	0.895	1.2	0.902	0.583	0.843	1	0.874	1.05
L fixed	1.21	1.2	1.3	0.878	1.07	1.18	0.88	0.878	1.02	0.997
M fixed	1.2	1	1.09	1.22	1.18	1.02	0.701	1.03	0.889	0.869
N fixed	0.455	1.1	0.54	0.807	0.864	1.25	1.23	1.46	0.951	1.36
P fixed	0.297	0.685	0.959	0.732	1.18	0.777	1.08	0.719	0.903	0.833
Q fixed	1	0.989	0.665	1.17	0.839	1.11	1.26	1.03	1.21	1.17
R fixed	1.01	1.63	1.6	1.89	1.06	0.639	0.957	1.27	0.924	1.43
S fixed	0.687	0.774	0.689	0.858	0.888	0.579	1.05	0.832	0.656	0.717
T fixed	0.77	0.814	0.706	0.741	1.22	0.778	0.894	0.708	0.614	0.612
V fixed	1.61	1.16	1.65	1.08	0.938	1.4	1.52	0.878	0.808	0.787
W fixed	1.43	1.94	1.91	1	0.961	0.746	0.75	1.04	1.15	0.928
pThr fixed	0.505	0.966	0.209	0.413	0.512	1.02	0.971	1.23	0.887	1.02
pTyr fixed	1.92	1.34	0.334	0.649	0.693	2.37	1.29	1.63	1.43	1.11
